{
  "source": "patent US20230140976A1",
  "about": "(OREGON HEALTH AND SCIENCE UNIVERSITY, published 2023)",
  "binders": {"B1": {"name": "monoclonal antibody from hybridoma DG1A11 (ATCC Patent Deposit No. PTA-126595) (antibody, V domains shown)", "VH": "DVQLQESGPGLVKPSQSLSLTCTVTDYAITSDYAWNWIRQFPGNKLEWMGYISYSGSTSYSSSLKSRISITRDTSKNQFFLQLNSVTPEDTATYYCARAAPFTTLTDFFDYWGQGTTLTVSS", "VL": "DIVMTQSHKFMSTSVGDRVTITCKASQDVTTAVAWYQQKPGQSPKLLIYWASSRHTGVPDRFTGSGSGTDYTLTISSVQAEDLALYYCQQHYSTPYTFGGGTKLEIKR", "notes": "Mouse monoclonal antibody (Balb/c hybridoma); Tested as hybridoma supernatant or purified antibody; also called Antibody A; lane A"}, "B2": {"name": "monoclonal antibody from hybridoma DG4H4 (ATCC Patent Deposit No. PTA-126594) (antibody, V domains shown)", "VH": "QVTLKESGPGILKPSQTLSLTCSFSGFSLSTSGMGVGWIRQPSGKGLEWLAHIWWDDDKYYNPSLKSQLTISKDTSRNQVFLKITSVDTADTATYYCARRAYYYGSSYPMDYWGQGTSVTVSS", "VL": "DIVLTQSPTSLAVSLGQRATFSCKASQSVDYDGDSYMNWYQQKPGQPPKLLIYAASNLDSGIPARFSGSGSGTDFTLNIHPVEEEDAATYYCQQSNEDPLTFGAGTKLELKR", "notes": "Mouse monoclonal antibody (Balb/c hybridoma); also called lane F"}},
  "key": {"[1]": {"molecular_target": "T1, human dystroglycan (DG) heterodimer of α-DG and β-DG (human, UniProt Q14118 30-653; Q14118 654-895, variable O- and N-glycosylation of α-DG (sites listed in paragraph 55))", "T1 construct": "In the immunoprecipitations it came from lysates of surface-biotinylated cells; also called DAG1; Dystrophin-Associated Glycoprotein 1", "T1 sequence 1": "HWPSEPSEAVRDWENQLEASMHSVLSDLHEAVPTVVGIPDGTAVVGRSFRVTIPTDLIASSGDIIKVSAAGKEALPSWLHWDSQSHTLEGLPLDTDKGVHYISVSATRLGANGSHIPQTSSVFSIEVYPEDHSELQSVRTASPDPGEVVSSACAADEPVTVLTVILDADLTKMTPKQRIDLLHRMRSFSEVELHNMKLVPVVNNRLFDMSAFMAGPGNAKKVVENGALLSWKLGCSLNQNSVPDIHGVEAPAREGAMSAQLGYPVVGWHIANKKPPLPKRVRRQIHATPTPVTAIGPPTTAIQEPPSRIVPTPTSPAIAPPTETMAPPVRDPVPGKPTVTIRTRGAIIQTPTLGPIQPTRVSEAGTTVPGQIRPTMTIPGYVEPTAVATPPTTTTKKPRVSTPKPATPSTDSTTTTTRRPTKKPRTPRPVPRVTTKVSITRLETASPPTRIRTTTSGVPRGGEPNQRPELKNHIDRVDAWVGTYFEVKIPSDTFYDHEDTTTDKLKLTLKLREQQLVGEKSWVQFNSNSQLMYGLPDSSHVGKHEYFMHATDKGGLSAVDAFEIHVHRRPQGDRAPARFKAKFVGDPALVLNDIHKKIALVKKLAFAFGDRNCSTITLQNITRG", "T1 sequence 2": "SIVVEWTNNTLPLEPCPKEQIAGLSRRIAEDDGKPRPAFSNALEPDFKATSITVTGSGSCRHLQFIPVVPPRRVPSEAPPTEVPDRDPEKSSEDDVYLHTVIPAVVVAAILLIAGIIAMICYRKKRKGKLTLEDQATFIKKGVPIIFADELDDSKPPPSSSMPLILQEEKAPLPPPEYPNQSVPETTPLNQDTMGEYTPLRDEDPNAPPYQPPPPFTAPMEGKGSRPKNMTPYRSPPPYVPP", "test": "live-cell immunofluorescence on co-cultured MEpG cells with and without human DG (FIG. 3)", "experimental": "Example 2. Screening for antibodies of interest by live cell binding and internalization. Antibody activity was measured as binding to the surface of living cells expressing the human DG protein (“positive” cells) but not to negative controls (cells derived from an engineered conditional DG knockout mouse lacking human DG expression). The positive population was the same cell line used for immunization, MEpG cells expressing the human DG protein. The negative population was the murine MEpG line expressing green fluorescent protein (GFP) and not the human DG protein, created as previously described in Oppizzi et al., Traffic, 9(12): 2063-2072, 2008. The positive and negative populations were co-cultured in wells of Ibidi 96-well micro-plates (Ibidi, catalog #89626) and distinguishable by GFP expression. Hybridoma supernatants to be tested were diluted 1:1 with plain DMEM:F12 cell culture medium (Gibco) and added to cell-containing wells of the 96-well Ibidi plates. Each well was incubated for 60 minutes at 37° C. with the hybridoma supernatants to be tested, washed with DMEM:F12 medium, and incubated 30 minutes at 37° C. with an anti-mouse secondary antibody conjugated to the Alexa-568 fluorescent dye (Jackson Immunochemicals) diluted 1:1000 in DMEM:F12 medium. […]"}, "[2]": {"molecular_target": "T2, dog dystroglycan (DG) (MDCK cells) (dog, UniProt Q9TSZ6 28-892)", "T2 construct": "whole, on cells; also called dog DG", "T2 sequence (looked up)": "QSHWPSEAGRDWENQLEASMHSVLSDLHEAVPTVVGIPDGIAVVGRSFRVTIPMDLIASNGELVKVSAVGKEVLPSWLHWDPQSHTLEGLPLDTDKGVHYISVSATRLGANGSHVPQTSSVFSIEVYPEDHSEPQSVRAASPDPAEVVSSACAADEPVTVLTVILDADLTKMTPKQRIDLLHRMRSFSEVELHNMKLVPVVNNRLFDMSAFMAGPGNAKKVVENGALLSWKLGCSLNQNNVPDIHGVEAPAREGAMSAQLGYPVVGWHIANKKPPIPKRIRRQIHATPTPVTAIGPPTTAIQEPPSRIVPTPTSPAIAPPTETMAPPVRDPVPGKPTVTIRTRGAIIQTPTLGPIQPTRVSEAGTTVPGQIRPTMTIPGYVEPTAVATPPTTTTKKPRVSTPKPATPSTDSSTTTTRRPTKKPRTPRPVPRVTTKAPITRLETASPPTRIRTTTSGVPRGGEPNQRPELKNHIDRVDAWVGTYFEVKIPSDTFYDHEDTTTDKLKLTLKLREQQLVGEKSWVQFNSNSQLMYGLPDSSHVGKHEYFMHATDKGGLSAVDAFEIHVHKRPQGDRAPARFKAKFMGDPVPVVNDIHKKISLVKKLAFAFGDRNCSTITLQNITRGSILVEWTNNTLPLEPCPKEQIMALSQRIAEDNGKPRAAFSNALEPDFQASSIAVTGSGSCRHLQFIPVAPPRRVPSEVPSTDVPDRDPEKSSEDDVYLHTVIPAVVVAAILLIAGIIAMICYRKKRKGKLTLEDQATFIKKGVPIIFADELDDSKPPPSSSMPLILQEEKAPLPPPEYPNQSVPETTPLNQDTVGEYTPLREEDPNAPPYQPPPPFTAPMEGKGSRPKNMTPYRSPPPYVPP", "test": "not described; MDCK cells"}, "[3]": {"molecular_target": "T1, human dystroglycan (DG) heterodimer of …", "test": "live-cell immunofluorescence on UMUC3, UMUC5, UMUC9 and UMUC10"}},
  "data": [
    {"binder": "B1", "values": [
      {"measurement": "binding result", "setting": "[1]", "result": "binds"},
      {"measurement": "binding result", "setting": "[2]", "result": "no binding"}
    ]},
    {"binder": "B2", "values": [
      {"measurement": "binding result", "setting": "[2]", "result": "no binding"},
      {"measurement": "binding result", "setting": "[3]", "result": "binds"}
    ]}
  ]
}
